# Results as given in US20220389118A1 (Chugai, published 2022).
# T1: human FcγRIIa type R extracellular domain with C-terminal His tag (human, UniProt P12318 34-217)
# T1 construct: extracellular domain; also called FcγRIIaR; FcγRIIa R
# T1 sequence (looked up): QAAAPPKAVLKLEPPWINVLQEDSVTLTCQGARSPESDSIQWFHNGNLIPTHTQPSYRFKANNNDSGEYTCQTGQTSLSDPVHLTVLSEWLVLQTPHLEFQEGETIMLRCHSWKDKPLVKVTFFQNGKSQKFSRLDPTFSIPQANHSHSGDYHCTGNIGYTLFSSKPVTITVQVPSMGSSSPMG
# T2: human FcγRIIb extracellular domain with C-terminal His tag (human, UniProt P31994 43-217)
# T2 construct: extracellular domain; for crystals expressed with kifunensine and trimmed with Endo F1; also called FcγRIIb extracellular region
# T2 sequence (looked up): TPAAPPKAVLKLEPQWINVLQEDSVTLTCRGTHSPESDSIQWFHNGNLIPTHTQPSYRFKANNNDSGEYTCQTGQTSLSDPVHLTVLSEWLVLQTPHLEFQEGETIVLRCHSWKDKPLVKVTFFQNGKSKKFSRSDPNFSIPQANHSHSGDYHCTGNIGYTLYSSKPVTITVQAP
# Tests used:
# [1] = target: T1, human FcγRIIa type R extracellular …; experiment: SPR
# [2] = target: T2, human FcγRIIb extracellular domain with …; experiment: SPR
# human IgE [3] = target: T3, human IgE (human); experiment: SPR (Biacore T200), human IgE held on SA chip by biotinylated GPC3 peptide, antibody as analyte, 37 C; pH7.4, 1.2 mM Ca; pH 7.4
# T3 construct: Recombinant human IgE used as the antigen; its variable region is from an anti-human glypican 3 antibody; held on the chip by a biotinylated GPC3 peptide; also called hIgE
# T3 sequence (heavy, as listed by the source, chain 1 of 2, other chains not shown): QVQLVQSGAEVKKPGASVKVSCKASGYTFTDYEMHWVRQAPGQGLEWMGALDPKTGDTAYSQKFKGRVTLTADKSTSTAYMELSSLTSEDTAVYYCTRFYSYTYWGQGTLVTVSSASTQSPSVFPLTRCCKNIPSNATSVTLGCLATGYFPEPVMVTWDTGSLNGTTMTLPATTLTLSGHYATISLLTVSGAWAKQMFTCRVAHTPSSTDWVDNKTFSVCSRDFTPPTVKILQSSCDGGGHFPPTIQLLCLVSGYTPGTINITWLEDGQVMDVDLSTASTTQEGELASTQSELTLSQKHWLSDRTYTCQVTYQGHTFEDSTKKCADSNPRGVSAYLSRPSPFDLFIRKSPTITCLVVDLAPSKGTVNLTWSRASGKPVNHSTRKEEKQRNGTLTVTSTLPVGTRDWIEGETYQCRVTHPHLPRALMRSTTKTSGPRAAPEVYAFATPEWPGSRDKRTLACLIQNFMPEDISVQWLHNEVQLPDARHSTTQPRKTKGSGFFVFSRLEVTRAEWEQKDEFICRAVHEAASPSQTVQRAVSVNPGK
# Procedure: (§1) Measurements were carried out using the following three types of running buffers:
# (§2) An appropriate concentration of human IgE was injected and captured by the biotinylated GPC3 peptide to immobilize human IgE on the chip. […] Then, 10 mmol/L glycine-HCl (pH 1.5) was injected to regenerate the sensor chip. All of the assay for the interaction was performed at 37° C. Using Biacore T200 Evaluation Software (GE Healthcare), the assay results were analyzed by curve fitting to determine the binding rate constant ka (1/Ms) and dissociation rate constant kd (1/s). Dissociation constant KD (M) was calculated from the above constants.
# human IgE [4] = target: T3, human IgE; experiment: SPR (Biacore T200), human IgE held on SA chip by biotinylated GPC3 peptide, antibody as analyte, 37 C; pH7.4, 1.2 mM Ca; pH7.4, 1.2 mM Ca; 37 C; pH 7.4
# Procedure: as §1, §2
# human IgE [5] = target: T3, human IgE; experiment: SPR (Biacore T200), human IgE held on SA chip by biotinylated GPC3 peptide, antibody as analyte, 37 C; pH5.8, 3 µM Ca; pH 5.8
# Procedure: as §1, §2
# human IgE [6] = target: T3, human IgE; experiment: SPR (Biacore T200), human IgE held on SA chip by biotinylated GPC3 peptide, antibody as analyte, 37 C; pH5.8, 1.2 mM Ca; pH 5.8
# Procedure: as §1, §2
# [7] = target: T1, human FcγRIIa type R extracellular …; experiment: SPR, amount of binding
# Excerpt: (§3) These variants were expressed and purified by the method of Reference Example 2. These Fc variants are called PD variants. Interactions of each PD variant with FcγRIIa type R and FcγRIIb were comprehensively evaluated by the method of Reference Example 25.
# [8] = target: T2, human FcγRIIb extracellular domain with …; experiment: SPR, amount of binding
# Excerpt: as §3
binder,measurement,setting,value
"IL6R-BP478/IL6R-L (antibody, IL6R-BP230 in which Ala118-Thr225 (EU numbering) is replaced by Ala118-Pro222 of G4d; copies: 2 + 2) heavy: QVQLQESGPGLVKPSETLSLTCAVSGHSISHDHAWSWVRQPPGEGLEWIGFISYSGITNYNPSLQGRVTISRDNSKNTLYLQMNSLRAEDTAVYYCARSLARTTAMDYWGEGTLVTVSSASTKGPSVFPLAPCSRSTSESTAALGCLVKDYFPEPVTVSWNSGALTSGVHTFPAVLQSSGLYSLSSVVTVPSSSLGTKTYTCNVDHKPSNTKVDKRVESKYGPPCPPCPAPDLLGDDSVFLFPPKPKDTLMISRTPEVTCVVVDVSDEDGEVKFNWYVDGVEVHNAKTKPREEQDNSTYRVVSVLTVLHQDWLNGKEYKCKVSNKALPRPIEKTISKAKGQPREPQVYTLPPSRDELTKNQVSLTCLVKGFYPSDIAVEWESNGQPENNYKTTPPVLDSDGSFFLYSKLTVDKSRWQQGNVFSCSVMHEALHNHYTQESLSLSP light: not shown",fold against IL6R-BP230/IL6R-L,[1],1.1 fold
same,fold against IL6R-BP230/IL6R-L,[2],1.1 fold
"278-IgG1 (antibody, V domains shown, pH-dependent anti-human IgE antibody) VH: QSLEESGGRLVTPGTPLTLTCTASGFSLSSYHMSWVRQAPGKGLEWIGVINSAGNTYYASWAKGRFTVSKTSTTVDLNLTSLTTEDTATYFCARYVFSSGSHDIWGPGTLVTVSS VL: AYDMTQTPASVEVAVGGTVTIKCQASQSIGSWLAWYQQKPGQPPKELIYGTSTLESGVPSRFIGSGSGTEFTLTISGVECADAATYYCQQGYSEDNIDNAFGGGTEVVVKR",koff,human IgE [3],0.0036 s⁻¹
same,kon,human IgE [4],1.5e+06 M⁻¹ s⁻¹
same,koff,human IgE [5],0.24 s⁻¹
same,kon,human IgE [5],62000 M⁻¹ s⁻¹
same,koff,human IgE [6],0.23 s⁻¹
same,kon,human IgE [6],120000 M⁻¹ s⁻¹
"IL6R-F652/IL6R-L (antibody, human IgG1, kappa, IL6R-F11 with P238D (EU numbering); copies: 2 + 2) heavy: QVQLQESGPGLVKPSETLSLTCAVSGHSISHDHAWSWVRQPPGEGLEWIGFISYSGITNYNPSLQGRVTISRDNSKNTLYLQMNSLRAEDTAVYYCARSLARTTAMDYWGEGTLVTVSSASTKGPSVFPLAPSSKSTSGGTAALGCLVKDYFPEPVTVSWNSGALTSGVHTFPAVLQSSGLYSLSSVVTVPSSSLGTQTYICNVNHKPSNTKVDKKVEPKSCDKTHTCPPCPAPELLGGDSVFLFPPKPKDTLYISRTPEVTCVVVDVSHEDPEVKFNWYVDGVEVHNAKTKPREEQYNSTYRVVSVLTVLHQDWLNGKEYKCKVSNKALPAPIEKTISKAKGQPREPQVYTLPPSRDELTKNQVSLTCLVKGFYPSDIAVEWESNGQPENNYKTTPPVLDSDGSFFLYSKLTVDKSRWQQGNVFSCSVMHEALHYHYTQKSLSLSP light: not shown",relative binding activity,[7],100 IL6R-F652/IL6R-L = 100
same,relative binding activity,[8],100 IL6R-F652/IL6R-L = 100
